Results: the supplement of paper PMC9112550, “Optimization of the antimicrobial peptide Bac7 by deep mutational scanning” (BMC Biology, 2022)

Test system: Escherichia coli TOP10
Assay: shrunken log2 fold change of peptide-encoding DNA abundance (4.5 h post-induction vs induction); higher = less antimicrobial activity (less host growth inhibition)
Conditions: time post-induction: 4.5 h; library: site-saturation at positions 5, 18, 19, 20
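Also: peptides expressed intracellularly from a pBAD plasmid library in pooled LB shake-flask culture, induced with 0.3% L-arabinose, DNA abundance read by NGS, three biological replicates, DESeq2 with apeglm shrinkage.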

| Sequence | shrunken log2 fold change |
| --- | --- |
| RRIRFRPPRLPRPRPRPDVQPRP | -0.0115 |
| RRIRCRPPRLPRPRPRPKNPPRP | 1.17 |
| RRIRDRPPRLPRPRPRPTATPRP | 2.57 |
| RRIRGRPPRLPRPRPRPNKEPRP | -0.00663 |
| RRIRKRPPRLPRPRPRPQIGPRP | -0.0295 |
| RRIRPRPPRLPRPRPRPEFYPRP | -0.173 |
| RRIRTRPPRLPRPRPRPKDAPRP | 0.103 |
| RRIRRRPPRLPRPRPRPETLPRP | 0.0675 |
| RRIRQRPPRLPRPRPRPQSKPRP | -0.574 |
| RRIRCRPPRLPRPRPRPEFPPRP | 0.278 |
| RRIRIRPPRLPRPRPRPELCPRP | 0.0211 |
| RRIRGRPPRLPRPRPRPAATPRP | 3.06 |
| RRIRTRPPRLPRPRPRPSNDPRP | -0.557 |
| RRIRKRPPRLPRPRPRPHQSPRP | 0.226 |
| RRIRERPPRLPRPRPRPYMPPRP | -0.429 |
| RRIRGRPPRLPRPRPRPWQVPRP | -0.00145 |
| RRIRERPPRLPRPRPRPFGVPRP | 0.00331 |
| RRIRKRPPRLPRPRPRPYSEPRP | -0.269 |
| RRIRCRPPRLPRPRPRPYDSPRP | 0.00489 |
| RRIRHRPPRLPRPRPRPVATPRP | -0.079 |
| RRIRTRPPRLPRPRPRPLLLPRP | 0.758 |
| RRIRSRPPRLPRPRPRPSSVPRP | -0.354 |
| RRIRKRPPRLPRPRPRPNTEPRP | 0.0416 |
| RRIRCRPPRLPRPRPRPETDPRP | -0.00874 |
| RRIRGRPPRLPRPRPRPSINPRP | -0.0752 |

| Sequence | shrunken log2 fold change |
| --- | --- |
| RRIRMRPPRLPRPRPRPIFTPRP | -0.0423 |
| RRIRARPPRLPRPRPRPFFTPRP | 0.617 |
| RRIRSRPPRLPRPRPRPMMIPRP | -0.196 |
| RRIRARPPRLPRPRPRPQLPPRP | 0.327 |
| RRIRKRPPRLPRPRPRPRACPRP | 0.474 |
| RRIRDRPPRLPRPRPRPFHMPRP | 0.0426 |
| RRIRGRPPRLPRPRPRPDAFPRP | 1.87 |
| RRIRYRPPRLPRPRPRPANYPRP | -0.0328 |
| RRIRWRPPRLPRPRPRPLTSPRP | -0.101 |
| RRIRDRPPRLPRPRPRPTPHPRP | 0.175 |
| RRIRHRPPRLPRPRPRPYVLPRP | -0.14 |
| RRIRWRPPRLPRPRPRPWPQPRP | 0.273 |
| RRIRFRPPRLPRPRPRPEKTPRP | -0.00398 |
| RRIRYRPPRLPRPRPRPYYRPRP | -0.161 |
| RRIRGRPPRLPRPRPRPDSKPRP | 0.125 |
| RRIRTRPPRLPRPRPRPKAYPRP | 0.0161 |
| RRIRFRPPRLPRPRPRPPFHPRP | -0.231 |
| RRIRDRPPRLPRPRPRPDVHPRP | 0.244 |
| RRIRMRPPRLPRPRPRPLSFPRP | 0.102 |
| RRIRQRPPRLPRPRPRPQHAPRP | -0.476 |
| RRIRERPPRLPRPRPRPRLPPRP | 0.35 |
| RRIRNRPPRLPRPRPRPATDPRP | 0.14 |
| RRIRIRPPRLPRPRPRPGHWPRP | 0.0615 |
| RRIRERPPRLPRPRPRPGVDPRP | 0.114 |
| RRIRGRPPRLPRPRPRPDRWPRP | 0.703 |

| Sequence | shrunken log2 fold change |
| --- | --- |
| RRIRGRPPRLPRPRPRPLCTPRP | 2.26 |
| RRIRARPPRLPRPRPRPFKHPRP | -0.27 |
| RRIRYRPPRLPRPRPRPSQDPRP | -0.561 |
| RRIRYRPPRLPRPRPRPPHAPRP | -0.0606 |
| RRIRARPPRLPRPRPRPQILPRP | -0.0605 |
| RRIRPRPPRLPRPRPRPMVTPRP | -0.0789 |
| RRIRFRPPRLPRPRPRPENTPRP | 0.003 |
| RRIRTRPPRLPRPRPRPNEVPRP | 0.0231 |
| RRIRSRPPRLPRPRPRPEVLPRP | -0.0111 |
| RRIRNRPPRLPRPRPRPKNFPRP | 0.0662 |
| RRIRDRPPRLPRPRPRPCYVPRP | -0.116 |
| RRIRERPPRLPRPRPRPTWMPRP | 0.0534 |
| RRIRFRPPRLPRPRPRPVREPRP | 0.269 |
| RRIRNRPPRLPRPRPRPVSGPRP | 0.172 |
| RRIRGRPPRLPRPRPRPMSYPRP | 0.0417 |
| RRIRLRPPRLPRPRPRPFNTPRP | 0.724 |
| RRIRDRPPRLPRPRPRPRQTPRP | 0.612 |
| RRIRWRPPRLPRPRPRPKSDPRP | 0.473 |
| RRIRRRPPRLPRPRPRPHGVPRP | 0.055 |
| RRIRIRPPRLPRPRPRPAWNPRP | 0.146 |
| RRIRLRPPRLPRPRPRPGDYPRP | -0.0616 |
| RRIRCRPPRLPRPRPRPCTLPRP | -0.107 |
| RRIRCRPPRLPRPRPRPIAVPRP | -0.0152 |
| RRIRKRPPRLPRPRPRPKQHPRP | 0.657 |
| RRIRSRPPRLPRPRPRPEHRPRP | -0.00155 |

| Sequence | shrunken log2 fold change |
| --- | --- |
| RRIRARPPRLPRPRPRPWQLPRP | -0.106 |
| RRIRLRPPRLPRPRPRPQWLPRP | -0.141 |
| RRIRMRPPRLPRPRPRPESPPRP | 2.01 |
| RRIRTRPPRLPRPRPRPKPKPRP | 0.349 |
| RRIRMRPPRLPRPRPRPTIAPRP | 0.26 |
| RRIRYRPPRLPRPRPRPGFYPRP | -0.406 |
| RRIRQRPPRLPRPRPRPMPSPRP | -0.162 |
| RRIRKRPPRLPRPRPRPPGIPRP | 0.279 |
| RRIRTRPPRLPRPRPRPCPAPRP | 0.115 |
| RRIRYRPPRLPRPRPRPIQMPRP | -0.0163 |
| RRIRSRPPRLPRPRPRPNMLPRP | -0.323 |
| RRIRQRPPRLPRPRPRPKQDPRP | 0.0446 |
| RRIRERPPRLPRPRPRPSHVPRP | -2.72 |
| RRIRYRPPRLPRPRPRPQRFPRP | -0.0259 |
| RRIRYRPPRLPRPRPRPPCEPRP | -0.468 |
| RRIRARPPRLPRPRPRPSSSPRP | 0.185 |
| RRIRWRPPRLPRPRPRPQWSPRP | -0.0983 |
| RRIRYRPPRLPRPRPRPKHLPRP | -0.155 |
| RRIRCRPPRLPRPRPRPTMSPRP | -0.139 |
| RRIRERPPRLPRPRPRPMAEPRP | 0.0131 |
| RRIRVRPPRLPRPRPRPHFGPRP | -0.0294 |
| RRIRGRPPRLPRPRPRPIACPRP | 0.526 |
| RRIRGRPPRLPRPRPRPACTPRP | 1.17 |
| RRIRYRPPRLPRPRPRPLIFPRP | -1.08 |
| RRIRLRPPRLPRPRPRPEWYPRP | 0.0934 |

| Sequence | shrunken log2 fold change |
| --- | --- |
| RRIRVRPPRLPRPRPRPPHYPRP | 0.1 |
| RRIRVRPPRLPRPRPRPTAPPRP | 0.175 |
| RRIRVRPPRLPRPRPRPAVVPRP | 0.213 |
| RRIRQRPPRLPRPRPRPNEIPRP | -0.217 |
| RRIRERPPRLPRPRPRPSYGPRP | -0.708 |
| RRIRHRPPRLPRPRPRPKFLPRP | 0.0327 |
| RRIRDRPPRLPRPRPRPRFGPRP | 0.206 |
| RRIRGRPPRLPRPRPRPLWLPRP | 0.574 |
| RRIRPRPPRLPRPRPRPTPHPRP | 0.373 |
| RRIRPRPPRLPRPRPRPSRVPRP | 0.269 |
| RRIRRRPPRLPRPRPRPFNDPRP | 0.0417 |
| RRIRCRPPRLPRPRPRPHNIPRP | -0.898 |
| RRIRPRPPRLPRPRPRPIVRPRP | 0.029 |
| RRIRCRPPRLPRPRPRPQARPRP | -0.421 |
| RRIRGRPPRLPRPRPRPVFHPRP | 0.0913 |
| RRIRARPPRLPRPRPRPWIYPRP | -0.647 |
| RRIRYRPPRLPRPRPRPGIVPRP | -0.384 |
| RRIRRRPPRLPRPRPRPYYYPRP | -0.9 |
| RRIRCRPPRLPRPRPRPEWHPRP | -0.0462 |
| RRIRKRPPRLPRPRPRPWKYPRP | -0.067 |
| RRIRNRPPRLPRPRPRPVCAPRP | 0.559 |
| RRIRARPPRLPRPRPRPMPRPRP | 0.827 |
| RRIRKRPPRLPRPRPRPWEKPRP | -0.00969 |
| RRIRMRPPRLPRPRPRPSMHPRP | 0.377 |
| RRIRKRPPRLPRPRPRPIGGPRP | -0.494 |
